Tests used:
Type in all cases: biochemical, Quillaja saponaria
[1] = Experiment 6-1: screening of rhamnosidases for derhamnosylation of saponins in treated bark extract (2%), QS-17 2296 to QS-18 2150 (PAR %); conditions: TBE 2%, pH 7.5, 30 degC, 18 h; TIC peak area ratio percent of rhamnosylated starting saponin to derhamnosylated product, LCMS/MS; negative controls 4.876, 5.225
[2] = Experiment 6-1: screening of rhamnosidases for derhamnosylation of saponins in treated bark extract (2%), desglucosyl-QS-17 2134 to QS-21 1988 (PAR %); conditions: TBE 2%, pH 7.5, 30 degC, 18 h; TIC peak area ratio percent, LCMS/MS; negative controls 2.719, 2.158
[3] = Experiment 6-1: screening of rhamnosidases for derhamnosylation of saponins in treated bark extract (2%), QS-17 2310 to QS-18 2164 (PAR %); conditions: TBE 2%, pH 7.5, 30 degC, 18 h; TIC peak area ratio percent, LCMS/MS; negative controls 3.061, 2.429
[4] = Experiment 6-1: specificity of rhamnosidases towards other rhamnose residues (C3 saccharide rhamnose, C28 saccharide rhamnose); conditions: TBE 2%, pH 7.5, 30 degC, 18 h; LCMS/MS; negative controls 0.18, 0.17

Row | Molecule | QS-17 (PAR %) [1] [%] | Peak75 (PAR %) [2] [%] | Peak57 (PAR %) [3] [%] | ratio PP/QS-21 [4]
1 | 1019 (protein, Bacteroides thetaiotaomicron) MNKKQLILLCMLAAGGSIQAQQWPDAPAEARPGTRWWWLGSAVDEKNLTYNLEEYARAGMGAVEITPIYGVQGNDANDIQFLSPRWMEVLKHTQAEGKRTGIEIDMNTGTGWPFGGPEVSIEDAASKAIFQTYDIEGGQEIVQDINVTDKKQQPYSVLSRVMAYDENGRCINLTSHVRKDKLVWKAPAGKWKVIALYNSKTRQKVKRAAPGGEGYVMNHLSKTAVKNYLSRFNRAFKSSKTSYPHTFFNDSYEVYQADWTEDFLDQFARRRGYKLEEHFPEFLDENRPEISRRIVSDYRETISDLLLENFTRQWTDWAHKNGSITRNQAHGSPANLIDVYAAVDIPECEGFGLSQFHIKGLRQDSLTKKNDSDLSMLKYASSAAHIAGKPYTSTETFTWLTEHFRTSLSQCKPDMDLMFVSGINHMFFHGTPYSPKEAEWPGWLFYASINMNPTNSIWHDAPSFFDYITRCQSFLQMGKPDNDFLIYLPVYDMWDEQPGRLLLFSIHHMAKLAPKFIDAIHRINNSGYDGDYISDNFIRSTRFKDGQLITSGGTGYKALVVPAAHLMPNDVLAHLLKLAQQGATIVFLENYPTDVPGYGQLEQKRKTYQQTLQKLPSVSFSETTVTPVGKGKIITGTDYARTLASCNIPQEEMKTKFGLQAIRRVNDSGHHYFISSLQDKGVNDWVTLGTKAKAAALFNPMTGECGEAKVRQAGEQTQVYLQLKSGESVILQTYQQPLQAARPWKYIQEQPFSLSLDHGWKLHFAESEPKIKGTFDIDRPCSWTGIDHPAAKINMGSGVYSLDIELPALQADDWVLDLGDVRESARVRINGQEAGCAWAVPYQLRVGHLLKSGKNHIEIEVTNLPANRISELDRQGVQWRKFKEINIVDLNYRPANYGHWAPMPSGLNSEVRLIPVDYLSFKTH | 4.626 | 2.982 | 2.390 | 0.15
2 | 1064 (protein, listed as Lachnospiraceae bacterium) MEIYNLKINGMVNPIGFEYKEIICSWKVRKTEDKQQKKARISISADQEFHEIVFQIEGEELDSTGTLADFKIKPYTTYYWKVYVEGENGEYGTSETAFFETAKMCHKWKADWIGTDKEDTFHPVFQKKFYLRDGIKKARLYCCGLGVYEGYINGKKAGNDYLAPFINDYKDNLQYQTYDITDLLFQQKENKIEFLLGKGWYIGKFGLDGCEKIFGDEMMLIAEIRVEYFDGRIEVICTDDNWKYKGSDIEDSGIYFGEKINRQLWDDRQNLWKQAVKKKQKTPLKERYSLPLTVKEDIVPVKIIHTPIGETVLDVGQNMVGYMEFFADFPKGTRIKIECGEILQHGNFCHDNYTIAESTFEYISDGRKETVRPHFTYMGFRYLRVTGWPNEIKLGDIKCRVIYSDLQRTGFCKTQNSMLNQLYENCIWSQKSNFVDMPTDCPQRGERLGWTGDAQVFAATACYNMDTRAFYRKYLRDIRSHQLRKNGAIPNFIPDLGTFSEACSIWGDAATILPYQIYQSYGCAEEIRSYYTTMKDWVEYMVSMDESQGRHYKFQPGFQFGDWLALDGITEQSLKGSTDDNYIGCCYYYHSVKITSEIAQVLGYTEDAQRYQELSGKIRKAILNEYFTPKGRLSVDTQTAYIIALKFGLYNNKNVLIQQFKERLTRDCYKIKCGFAGTPLLCSVLGENGMEDIAYRILLNKDYPGWLYCVNLGATTVWERWNSVLSDGMLSGTGMNSLNHYAYGSVVQYFYEYIAGIRPKRPGFKEAFIEPKPDIRIQGVMCSYDSAMGVYKSEWKIQENGLICIHIEIPFNCTADVLLPEYSSNGLTYSDNVNGEMISENGKLQLCSGKYDFAYFPKNDYRHVYKPESILGDLREDKEALEILEKNIPVLYEIIQSNDIENMLITLQEFDTLHFMGIDPEIADETRKKIYNLNYYGK | 4.625 | 2.476 | 3.009 | 0.18
3 | 1038 (protein, listed as Formosa agariphila) MILHKSVFKSYIYVLTYFVFFSVMSCENSSVLQEAKHLTISEGFKNPLGFYDAKPTFSWELPVVEGVISQSAYQIVVASSPDLLPNNPDLWDSNKQSSSQSVWINYEGKPLVSRQKVFWQVKYWNQDDKASNWSPVQNFELGLLNNSDWKAKWIGLPTKEEGVLGSQDNIIHRPQYLRKVFELSNDVANARLYITAKGVFDVAINGEDVSDDVMPPGYTPYKKRIETITYDVTDLIESGQNTIGVEVAAGWHSGRLGWMKSYWSDTESPKILCQLEVTMKDGSKASIISDDTWKATTQGPIRISEIYDGETYDAHLEMPHWTTNSFDDKNWKAVQAFPVTSTIKLEPKRHTTVKSKIVLESKEIILKADAAIFDLQQNMVGVPLLKVPMKMGDTLKIRFAEMLSPDGTFYTDNYRSAQSTDYYIAAKEGTIEWMPKFTFHGFRYVELSGFDASKTPSKNWVKGVVQYSNFNENGSFTSSHEKLNQLQSNIVWGLRGNFFDIPTDCPQRDERMGWTGDAQVFGPTSMFNADVYKFWASWMQSVRESQYDNGGIPFVVPDVLHNGKVSSGWGDVCTIIPWKIYYRTGDVGILEENYDMMKKWVAHHQATSKDFISHMNSFADWLQPYPENGNNKGDTSHSLIGTAFFAHSAKLTAKTAEVLGKKEEQATYEALYKSVAKAFENAFFKNGKVKDVTATQTSYLLALAFDLLSEENKENAKQQLLEKISEADNHLRTGFLGTPLLSEVLDETGEIDLMYKLLFNETYPSWFYSINQGATTIWERWNSYSKAEGFNPMKMNSLNHYAYGAIGEWMYERITGIAPLQAGYKIISIAPIPKAPLTSASATLNTPYGEVASSWEIKNETLFLEVVVPPNTTAEIEIPTDNSESLKVDNENFTNGKNLKLIKNEKRKIKILAQPGTYEFQAKYSL | 4.725 | 2.512 | 2.913 | 0.18
4 | 1032 (protein, Spirosoma linguale) MRYIFFLGLLAASLTAFAQTAPTNLRTDLLLHTDKVWSNGFLTNYTLDGADSAKFAGQLALIRSSRPSFSWVLSTAGGTSRQTAYRLILSTSRQKNQADAGDVWDSGKVMSSQSVGILLPASQKLDTNRIYFWKVKVWNERNLESDFSQPKAFRTAPRLTAYETPFYPLVKTEEAPRSQRTLAGQRIVYDFGKDAFGQAFLTVSSASESDTLIVHLGEAVTADGHVNEKPSGTLRYRQIRVPLQKGTHRYAIQFKPDKRNTGPKAILMPDYIGEVLPFRYVELAFNPATRIEQIVRQVVTYPFDDSATTFSSSDSTLNQIWDLCKHTIKATTFTGYYVDGDRERIPYEADALLNQLSHYATDAEYNMAKRSLNYLVFHATWPTEWSLQNVLIAWYDYLYSGDSRTVEALYPELKAKLLLPLARPDGLISTRTGLQTPEFKKSIHYDTFDGRPTIQDIVDWPQQGVLGLGKKEAGETDGFVFTDYNAVVNAFHYQGLVFMAQLASRLGKTDDAAFYANRAGLVRKAFQATFIHPKTGLVRDGEGTDHASLHANMMALAFGLVPEKLQSQVLAHIRSRGMACSVYGSQFLLDALYNANESAYGLALMTSTDERSWYNMLRTGSTMTTEAWDTRYKPNQDWNHAWGSAPANIIVRKLMGVEALTLAYETVQIKPQPDTLRQASLQVATLRGPISVAFDNTPDRFVLRTTLPANTNGVVYLPRKKTKSQVLQNGKSVKAAVEGNFWKITSVGAGTHEWEVR | 4.730 | 2.411 | 3.044 | 0.17
5 | 1047 (protein, listed as Brachybacterium faecium) MSSHTAQHVLDALTHPDPAARPMMRWWWFGPDMDRAEIDRELRAMAAAGLGGAEIALVYPLRPGAPDYLGDEALGHVRHAAERARELGLRLDVTLGSGWSYGGPHIGPEQAARRLRWERRDLGPQPLSWPLTPSWPGDELVSVHLGEGLPPSGWTRLDPVGERLEIPAGRGPRTVLLAWSEVTGQQVKRSAAGAEGPVVDHLSATAVRHHLDVVGGALLSAVPAHLLGSVFSDSLEVYDAGWTAALPEQFRQRRGYDLLPVLHLLEVDAPGAEQVREDYGLTLSELVEEGFVGTCRAWAEEHGVRFRLQGYGQPPITLSAQRGAHLIEGEGAGWTALTQSRWASSAAHLDRREVVSSEVWTWVRSPAFRAAPLDLLGEAHEHLLLGITHFVGHGWPYTAPDAPGLGWTFYAAGALDDRNAWWPAMPELTAHLTRLCAALRLGAPGAEVALYLPYADVRAARGRGHDLWAACRAHIGEQLPAAIRRAGYDLDLLDDDALAALDPAAYPVVVLPRVSRLPAETRRWLDRVRAAGGSVLAVDSPAYPAGQQLSLPEEDGDDARLRDHATLAMVGARGGSDAEGEEGADGEGADGEAAGGKNPLAAALRGAHTPPLLLSGDGGEVGTVHRRLADGDLHLLAHTGPRRREVEVTPRDPRRALALHDPAEPGLRPLPSTGARLVLHPYQAVLLLATDQPLPAPDGAAPATDAAHGPAQTGTAEPEPIALDGPWTASRPGEAPRAVTLPHLLTGQDAADLRPLLLETTVTLDEDTARGPLVLDLGPGRAVPHTGEGSGYRALLEPPVREIAVLEVDGEELGVLWRPPYRIALTGRLRAGTSRLRLRIHGTTAAAAALPENAEAAAGQVAAAHETYGERFQPQELERMLDGVATGLASVPVLRRAGG | 4.669 | 2.456 | 3.332 | 0.17
6 | 1057 (protein, listed as Parabacteroides goldsteinii) MKVDITKIFTILFVIAFAGCLLQSCNSSINGLEQGFFNPPDSVRPGVYWYFMDGNLSKEAMTKDLESMKEAGIGHVVYLEVNVGVPRGSVDFLSDEWQEMFAHAVAECERLGIDITLGVGPGWTGSGGPWVEGAQSMMHLVSSSVNVSGKGKKTIALPKPSPKPHFFAEDNFTPESKKRWEEYYEDVAVLAFPAGASTFGTDYEAGSAYLRITGIEEKALYYRKPYSSVTQVKPYLTFGKDSFTVQTVDKDCIIDLTDHLEIDGTLTWEVPEGDWTIMRFGARNNGAVTRPAPHPGVGLETNKFDTTALNAHLDKFVTKLFNRVGFKKAQPQGGLQMLHMDSWEMGAQNWTTHFREEFTKRRGYDPQPFYPVYAGFIVQSREESERFLWDLRVTSQELIKEYHAGHIKSYGKRYGLGLSIEPYDMNPTADLELASVADMPMCEFWSVGYGYNTSFSAMEGTSVAHLLGQPVVPAESFTAYLDGWRQHPGSMKNQTDWALASGINRLMFHTFQHQPLNDRLRPGMTMGPYGVHWDRNQTWWPMADAYHRYISRCQLLLQQGRTVADILYLTPEGAPHVFRAPISALEGDLLDTDNLFNFRNETPLPDRKGYNFDACPPSLFYDAQVKDGKVVFPSGVSYRLLVLPCFETMTPELLEKIRDLVNGGATVVGLPPQKSPSLVNYPVCDEKVRVLVQELWGGYEIPETVEIRSIGKGKVIWSKELLEQQDNLYPTYEYTADILAKMDVHEDFESTGEIRYTHRTMKGYEIYFVSNRKDSPVTVNCKFRMTGHPELWNPMTGEIRPLAEYTVTGVHTTIPLLFDANEGYFIVFRDNTFQREIQTKKNFPDSRRVASLTAPWSVSFDPAWGGPEQVTFEKLTDWTQHPDSGIRYYSGTAIYRQTFDRPADNSKQQFLDLGKVKNLARVRLNGQDLGVVWTAPWRVEITKALKLKDNQLEIEVVNLWPNRLIGDEQLPDDGIRNGEWPEWLKDGGPRTSGRYTFTTYKHFTKESPLLESGLLGPVTIWGIDN | 4.670 | 2.498 | 3.213 | 0.15
